Tested on: K4 kissing-loop RNA reporter
Test: apparent KD of K4 kissing-loop reporter; higher = weaker reporter binding
Settings: Eterna round: R107
Description: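 RNA-MaP round R107: designed RNA switches with theophylline, tryptophan, arginine or FMN aptamers are transcribed on-chip within common flanks. They are titrated with a labelled K4 kissing-loop RNA reporter in RNA-MaP buffer (100 mM Tris pH 7.5, 80 mM KCl, 4 mM MgCl2), without ligand or with the indicated ligand. Median apparent KD per design.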

[1] = input ligand: theophylline 20 uM
[2] = input ligand: tryptophan 2.4 mM
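Also: bound reporter read as fluorescence of individual clusters on recovered sequencing chips by microscopy, with normalized cluster intensities fitted with a binding model.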

Sequence | apparent KD of K4 kissing-loop reporter (input ligand: FMN 200 uM) | apparent KD of K4 kissing-loop reporter (input ligand: arginine 13.2 mM) | apparent KD of K4 kissing-loop reporter (input ligand: none) | apparent KD of K4 kissing-loop reporter [1] | apparent KD of K4 kissing-loop reporter [2]
AAAGAUGCGUCGGCCGCCACUGUGAUCUACGAAAGUAGUAUGUAGAUGCAGUGAUGUUGCAUUUUCAGGACCGGGACGUAAGAUG [3rd] | 0.447 µM | 0.362 µM | 0.321 µM | 0.496 µM | 0.211 µM
UUGAGCCGGACGGAAGUCCGGCUCUGCGAGCGAGGACCGGUACGGCCGCCACUCGGUGCAGUGAUGUUGCAUGGCCGCAAGGCCG [#2 Exclusion - Tryptophan A Attempt #4 (HarryS)] | 0.27 µM | 0.232 µM | 0.301 µM | 0.208 µM | 0.324 µM
UAUUAAUUGUCAGGAUAUCGUAAACGAGUGAUGUUCGUAUAUCGACGAUAGUCGAUUCUAUCUAAACGAGAAGGGACAUUAUUUA [JR_SSFMNB_Sub008] | 0.346 µM | 0.454 µM | 0.664 µM | 0.516 µM | 0.42 µM
CGAGUGAUGUUCGAAGAGUUGUUAAGCGAUACCAGCUAGGAAACUGGCCCUUGGCAGCGUAAUAAAUAAAUAAAUAAAUGAUCAC [whbob_Ex_Theo_A_th62] | 0.351 µM | 0.414 µM | 0.369 µM | 0.456 µM | 0.322 µM
CGUUUAUAGCAGGAUACCAGUACCCAUAAAGUACGUUAAUAGUAGAGUGAUGUUCUAAAGUACCCUUGGCAGCUUAGAGUGAGUG [ExTheophylB.Q] | 0.0935 µM | 0.159 µM | 0.117 µM | 0.137 µM | 0.0764 µM
ACGUGCACCAGUGAUGUUGGAAAAUAUGAAGGAGCGGGUGAAAGCCCAGGUAGGUCGCAUAAUAGCACGAGCCACGAAAGUGGCA | 0.131 µM | 0.175 µM | 0.184 µM | 0.154 µM | 0.117 µM
GGGCGCGGCGCGGCCGCCACUGCGCCUGGGUGCUCGCCGAGUGAUGUUCGUCGGCGGUUGGGUGGCAGGACCGGGUGCCGGCCCG [BDazzled - #17 SS Tryptophan B] | 1.58 µM | 0.533 µM | 3.28 µM | 2.14 µM | 0.457 µM
ACACUUACACAUGAUACCAGAAUUCUACCGUAAAUAGUAAGUGAUGUUUGCUAACGGCUUUUCCCUUGGCAGCAUGAUCGGUAUU [theeternabot_sameState_KL_Theo_B_43] | 0.201 µM | 0.121 µM | 0.178 µM | 0.242 µM | 0.149 µM
GAGUCCUUUGAAGGAUAUAGACGUCCCGAUCACUCAGUUGGCGAGCGAGUGAUGUUCGUUCCUAUACUAGAAGGUCAAAGCCUCC [theeternabot_sameState_KL_FMN_B_32] | 0.225 µM | 0.193 µM | 0.211 µM | 0.204 µM | 0.205 µM
AAUUUUAAUCAUAAAUAAUAAAUAAAUGAUACCAGUAUUUUUUUUUACCCUUGGCAGCGUAUAUAAGGGCAGUGAUGUUGUCAGA [whbob_SS_Theo_A_w60] | 0.236 µM | 0.0988 µM | 0.257 µM | 0.222 µM | 0.164 µM
UUAGAGAUCUCAGGAUAUGAGUGAUGUUGAUAUCAAGAUCUGAGAUAGAAUUCUAUCUCAGAUCAAUCAGAAGGGAGAUCUCAUU [AK1.3 Exc FMN B] | 0.172 µM | 0.109 µM | 0.194 µM | 0.411 µM | 0.263 µM
UUCGAAAGUCGAAGGAGCGCUGUCGGUCAUAGACCAUAUCUGUAGUGAUGUUACAGAUGACAGCAGGUAGGUCGCGACAGAGACA [Arg B SS t18] | 0.148 µM | 0.12 µM | 0.127 µM | 0.144 µM | 0.144 µM
GGAUAGGAUAGAGGAUAUGGCUUACGCAGAAAUAACUUGUUGUGUUUAUCCAUAGGGAGUGAUGUUCCAGAAGGCUGUCCUAUCG [MatMod 18 - Jieux - Exclusion - FMN B] | 0.732 µM | 0.204 µM | 0.266 µM | 0.24 µM | 0.183 µM
GUAUAUCGAGUGAUGUUCGAAUGCUCCGAAGGAGCGCGGAUAAUCGCAGGUAGGUCGCGGAGCAGUUGCUGAGGAAGCUCAGUAU [Arg A SS t11] | 0.162 µM | 0.401 µM | 0.211 µM | 0.211 µM | 0.147 µM
CGCUUGCACGGAAGGAGCGUCCAAGCGAGACACGAGUGAUGUUCGUGAUCGACGUAAACUGGACAGGUAGGUCGCCGUGCUUAAU [Eresti] | 0.107 µM | 0.091 µM | 0.121 µM | 0.101 µM | 0.1 µM
UUUAACGAGUGAUGUUCGAAAAGUAAUGGUGAGGAUAUCGAUUUUUCGAGAAGGCACCUCGAAGUGAUACGAAAGUAUCGCUUCG [FMN A 4] | 0.173 µM | 0.276 µM | 0.261 µM | 0.257 µM | 0.199 µM
